Measured values reported in PMC6900475.

Legend:
[1] = target: SK.Plg* activator complex of SKC2 (α_(STAB)-βG88-γ_(STAB)) (group A streptococcus (GAS), STAB902 | group G streptococcus (GGS), G88 | not stated)
[2] = target: SK.Plg* activator complex of SKC1 (αG88-β_(STAB)-γG88) (group G streptococcus (GGS), G88 | group A streptococcus (GAS), STAB902 | not stated)

Substance: plasminogen (natural protein)
- K m (µM), proteolytic constants: Plg activation by the SK.Plg* complex against substrate Plg 0.3 to 5.0 µM, S2251 hydrolysis at 405 nm, 37 °C [1]: 3.73 µM
- K m (µM), proteolytic constants: Plg activation by the SK.Plg* complex against substrate Plg 0.3 to 5.0 µM, S2251 hydrolysis at 405 nm, 37 °C [2]: 1.09 µM
